Legend:
[1] = target: T1, Cul3NΔ22 (23-388, I342R, and L346D) (UniProt Q13618 23-388, I342R | L346D); assay: pull-down
[2] = target: T1, Cul3NΔ22 (23-388, I342R, and L346D); assay: cryo-EM structure
cryo-EM structure = target: the molecule itself; assay: cryo-EM structure

T1 sequence (Q13618 23-388 I342R/L346D): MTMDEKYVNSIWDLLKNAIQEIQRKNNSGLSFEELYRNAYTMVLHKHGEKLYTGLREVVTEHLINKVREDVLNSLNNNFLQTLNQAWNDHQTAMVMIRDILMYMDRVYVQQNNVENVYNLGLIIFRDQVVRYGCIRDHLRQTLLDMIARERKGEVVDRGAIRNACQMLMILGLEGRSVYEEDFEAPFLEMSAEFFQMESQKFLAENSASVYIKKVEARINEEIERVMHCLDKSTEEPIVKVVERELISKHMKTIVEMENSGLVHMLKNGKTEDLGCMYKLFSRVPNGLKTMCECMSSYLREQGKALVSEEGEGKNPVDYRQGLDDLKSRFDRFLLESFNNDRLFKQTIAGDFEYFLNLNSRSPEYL

| binding result [1] | binding result [2] | Binder | stoichiometry N (cryo-EM structure) |
| --- | --- | --- | --- |
| binds |  | FLAG-tagged KCTD7 WT (E. coli, for pull-down) (natural protein) MVVVTGREPDSRHSDGAMSSSEAEDDFLEPATPTATQAGHGLPLLPQEFPEVVPLNIGGAHFTTRLSTLRRYEDTMLAAMFSGRHYIPTDSEGRYFIDRDGTHFGDVLNFLRSGDLPPREHVRAVHKEAQYYAIGPLLEQLENMQPLKGEKVRQAFLGLMPYYKDHLERIVEIARLRAVQRKARFAKLKVCVFKEEMPITPYECPLLNSLRFERSESDGQLFEHHCEVDVSFGPWEAVADVYDLLHCLVTDLSAQGLTVDHQCIGVCDKHLVNHYYCKRPIYEFKITWW |  |
| binds |  | FLAG-tagged KCTD7 S67A (natural protein) MVVVTGREPDSRHSDGAMSSSEAEDDFLEPATPTATQAGHGLPLLPQEFPEVVPLNIGGAHFTTRLATLRRYEDTMLAAMFSGRHYIPTDSEGRYFIDRDGTHFGDVLNFLRSGDLPPREHVRAVHKEAQYYAIGPLLEQLENMQPLKGEKVRQAFLGLMPYYKDHLERIVEIARLRAVQRKARFAKLKVCVFKEEMPITPYECPLLNSLRFERSESDGQLFEHHCEVDVSFGPWEAVADVYDLLHCLVTDLSAQGLTVDHQCIGVCDKHLVNHYYCKRPIYEFKITWW |  |
|  | binds | KCTD7 (Sf9, for the cryo-EM complex) (natural protein) MVVVTGREPDSRHSDGAMSSSEAEDDFLEPATPTATQAGHGLPLLPQEFPEVVPLNIGGAHFTTRLSTLRRYEDTMLAAMFSGRHYIPTDSEGRYFIDRDGTHFGDVLNFLRSGDLPPREHVRAVHKEAQYYAIGPLLEQLENMQPLKGEKVRQAFLGLMPYYKDHLERIVEIARLRAVQRKARFAKLKVCVFKEEMPITPYECPLLNSLRFERSESDGQLFEHHCEVDVSFGPWEAVADVYDLLHCLVTDLSAQGLTVDHQCIGVCDKHLVNHYYCKRPIYEFKITWW | 5 |
| binds |  | FLAG-tagged KCTD7 R65A (natural protein) MVVVTGREPDSRHSDGAMSSSEAEDDFLEPATPTATQAGHGLPLLPQEFPEVVPLNIGGAHFTTALSTLRRYEDTMLAAMFSGRHYIPTDSEGRYFIDRDGTHFGDVLNFLRSGDLPPREHVRAVHKEAQYYAIGPLLEQLENMQPLKGEKVRQAFLGLMPYYKDHLERIVEIARLRAVQRKARFAKLKVCVFKEEMPITPYECPLLNSLRFERSESDGQLFEHHCEVDVSFGPWEAVADVYDLLHCLVTDLSAQGLTVDHQCIGVCDKHLVNHYYCKRPIYEFKITWW |  |
| binds |  | FLAG-tagged KCTD5 full-length (FL) (natural protein) MAENHCELLPPAPSGLGAGLGGGLCRRCSAGMGALAQRPGGVSKWVRLNVGGTYFLTTRQTLCRDPKSFLYRLCQADPDLDSDKDETGAYLIDRDPTYFGPVLNYLRHGKLVINKDLAEEGVLEEAEFYNITSLIKLVKDKIRERDSRISQMPVKHVYRVLQCQEEELTQMVSTMSDGWKFEQLVSIGSSYNYGNEDQAEFLCVVSKELHNTPYGTTSEPSEKAKILQERGSRM |  |
| binds |  | FLAG-tagged KCTD5 R159A (natural protein) MAENHCELLPPAPSGLGAGLGGGLCRRCSAGMGALAQRPGGVSKWVRLNVGGTYFLTTRQTLCRDPKSFLYRLCQADPDLDSDKDETGAYLIDRDPTYFGPVLNYLRHGKLVINKDLAEEGVLEEAEFYNITSLIKLVKDKIRERDSRISQMPVKHVYAVLQCQEEELTQMVSTMSDGWKFEQLVSIGSSYNYGNEDQAEFLCVVSKELHNTPYGTTSEPSEKAKILQERGSRM |  |
| binds |  | FLAG-tagged KCTD5 D93A (natural protein) MAENHCELLPPAPSGLGAGLGGGLCRRCSAGMGALAQRPGGVSKWVRLNVGGTYFLTTRQTLCRDPKSFLYRLCQADPDLDSDKDETGAYLIARDPTYFGPVLNYLRHGKLVINKDLAEEGVLEEAEFYNITSLIKLVKDKIRERDSRISQMPVKHVYRVLQCQEEELTQMVSTMSDGWKFEQLVSIGSSYNYGNEDQAEFLCVVSKELHNTPYGTTSEPSEKAKILQERGSRM |  |
| binds |  | FLAG-tagged KCTD5 R72A (natural protein) MAENHCELLPPAPSGLGAGLGGGLCRRCSAGMGALAQRPGGVSKWVRLNVGGTYFLTTRQTLCRDPKSFLYALCQADPDLDSDKDETGAYLIDRDPTYFGPVLNYLRHGKLVINKDLAEEGVLEEAEFYNITSLIKLVKDKIRERDSRISQMPVKHVYRVLQCQEEELTQMVSTMSDGWKFEQLVSIGSSYNYGNEDQAEFLCVVSKELHNTPYGTTSEPSEKAKILQERGSRM |  |
| binds |  | FLAG-tagged KCTD5 W179A (natural protein) MAENHCELLPPAPSGLGAGLGGGLCRRCSAGMGALAQRPGGVSKWVRLNVGGTYFLTTRQTLCRDPKSFLYRLCQADPDLDSDKDETGAYLIDRDPTYFGPVLNYLRHGKLVINKDLAEEGVLEEAEFYNITSLIKLVKDKIRERDSRISQMPVKHVYRVLQCQEEELTQMVSTMSDGAKFEQLVSIGSSYNYGNEDQAEFLCVVSKELHNTPYGTTSEPSEKAKILQERGSRM |  |
| binds |  | FLAG-tagged KCTD5 E167A (natural protein) MAENHCELLPPAPSGLGAGLGGGLCRRCSAGMGALAQRPGGVSKWVRLNVGGTYFLTTRQTLCRDPKSFLYRLCQADPDLDSDKDETGAYLIDRDPTYFGPVLNYLRHGKLVINKDLAEEGVLEEAEFYNITSLIKLVKDKIRERDSRISQMPVKHVYRVLQCQEEALTQMVSTMSDGWKFEQLVSIGSSYNYGNEDQAEFLCVVSKELHNTPYGTTSEPSEKAKILQERGSRM |  |

— publication PMC10348674 (Science Advances, 2023)
